Assay results published in publication PMC12489045, “Non-coding RNA mediates the defense-associated reverse transcriptase (DRT) anti-phage oligomerization transition” (The EMBO Journal, 2025).

Key:
[1] = biological target: DRT9 reverse transcriptase (DRT9-RT protein), wild type, in complex with its ncRNA (Escherichia coli); test: cryo-EM structure; DRT9 RT-ncRNA complex without dNTPs, 2 mg/ml; 3.49 Å
[2] = biological target: DRT9 reverse transcriptase (DRT9-RT protein), wild type, in complex with its ncRNA (Escherichia coli); test: cryo-EM structure; DRT9 RT-ncRNA complex (2 mg/ml) with 1 mM of each dNTP, 25 mM Tris-HCl pH 7.5, 150 mM NaCl, 5 mM MgCl2, room temperature 1 h; 3.46 Å

fraction of particles that are hexamers (without dNTPs) [1]: 13%
stoichiometry N [1]: 4
stoichiometry N [2]: 6
Substance: DRT9 reverse transcriptase (DRT9-RT protein), wild type, in complex with its ncRNA (enzyme)
